In assay [1] the target is T1, human PD-1 (Sino Biological), coated on plates (human, UniProt Q15116 25-167).
T1 construct: whole entry named
As to the kind of experiment: ELISA, plates coated with human PD-1 at 1 µg/ml. The method, then:
(§1) For ELISA, plates (Nunc) were coated with human, cynomolgus or mouse PD-1 (Sino Biological) at 1 μg/ml overnight at 4° C. After blocking and washing, antibodies were serially diluted in blocking buffer and added to the plates and incubated at room temperature for 1 h. The plates were then washed and subsequently incubated with secondary antibody goat anti human IgG HRP (Bethyl) for 1 h. After washing, TMB substrate was added and the reaction was stopped by 2 M HCl. The absorbance at 450 nm was read using a microplate reader (Molecular Device).

The target of assay [2] is T2, mouse PD-1 on transfected 293F cells (mouse, UniProt Q02242 25-288).
T2 construct: whole, on cells; also called cell surface mouse PD-1
T2 sequence (looked up): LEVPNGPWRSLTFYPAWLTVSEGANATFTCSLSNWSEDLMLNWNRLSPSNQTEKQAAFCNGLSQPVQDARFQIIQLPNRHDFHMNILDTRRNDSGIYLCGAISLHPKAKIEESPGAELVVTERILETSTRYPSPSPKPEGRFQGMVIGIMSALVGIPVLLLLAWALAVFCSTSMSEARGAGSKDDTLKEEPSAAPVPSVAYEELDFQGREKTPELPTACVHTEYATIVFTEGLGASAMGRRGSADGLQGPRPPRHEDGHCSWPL
As to the kind of experiment: flow cytometry on 293F cells expressing mouse PD-1, quantitative beads. As for the experimental part: (§2) Testing antibodies were 1:2 serially diluted in wash buffer (1×PBS/1% BSA) and incubated with cells at 4° C. for 1 h.

The target in assay [3] is T3, human PD-1 on transfected cells (human, UniProt Q15116 25-288).
T3 construct: also called CHO-S cells expressing human PD-1; human PD-1 transfected CHO-S cells
As to the kind of experiment: FACS, human PD-1 transfected CHO-S cells.

In assay [4] the target is T4, mouse PD-1 (Sino Biological), coated on plates (mouse, UniProt Q02242 25-167).
T4 sequence (looked up): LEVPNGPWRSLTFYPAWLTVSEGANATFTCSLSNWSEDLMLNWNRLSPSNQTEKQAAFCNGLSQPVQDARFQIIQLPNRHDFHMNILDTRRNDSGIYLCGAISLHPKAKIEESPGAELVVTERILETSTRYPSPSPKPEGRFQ
As to the kind of experiment: ELISA, plates coated with mouse PD-1 at 1 µg/ml. As for the experimental part: as §1

Assay [5] addresses T5, human CTLA-4 on a constructed cell line (human, UniProt P16410 36-223).
T5 construct: whole, on cells
As to the kind of experiment: FACS, CTLA-4.293F cells, one antibody concentration (not given). As for the experimental part: (§3) Constructed cell lines that respectively express human PD-1, CD28, CTLA-4 or ICOS were transferred in to 96-well U-bottom plates (BD) at a density of 2×10⁵ cells/well. Testing antibodies were diluted in wash buffer (1×PBS/1% BSA) and incubated with cells at 4° C. for 1 h. After washing, the secondary antibody goat anti-human IgG Fc FITC (Jackson ImmunoResearch Lab) was added and incubated at 4° C. in the dark for 1 h. The cells were then washed once and resuspended in 1×PBS/1% BSA, and analyzed by flow cytometery (BD) and FlowJo software.

Assay [6] concerns the target T2, mouse PD-1 on transfected 293F cells. As to the kind of experiment: FACS, mouse PD-1 transfected 293F cells.
Assay [7] deals with T3, human PD-1 on transfected cells. As to the kind of experiment: FACS competition on CHO-S cells expressing human PD-1 against biotinylated Keytruda at 1 µg/ml. As for the experimental part:
(§4) The cells were washed and the second antibody Streptavidin-PE were added and incubated for 30 min at 4° C. The cells were then washed once and resuspended in 1×PBS/1% BSA, and analyzed by flow cytometery (BD).

Assay [8] has the same target. As to the kind of experiment: FACS competition on CHO-S cells expressing human PD-1 against biotinylated WBP305BMK1 at 1 µg/ml. As for the experimental part: as §4
Assay [9] deals with T6, human CD28 on a constructed cell line (human, UniProt P10747 19-220).
T6 construct: whole, on cells
As to the kind of experiment: FACS, CD28.CHO-K1 cells, one antibody concentration (not given). As for the experimental part: as §3

Assay [10] deals with T3, human PD-1 on transfected cells. As to the kind of experiment: FACS blocking assay: mouse Fc fusion-human PD-L1 binding to human PD-1 transfected CHO-S cells.
The target of assay [11] is T2, mouse PD-1 on transfected 293F cells. As to the kind of experiment: FACS blocking assay: mouse Fc fusion-mouse PD-L1 binding to mouse PD-1 transfected 293F cells.
The target of assay [12] is cynomolgus PD-1 (Sino Biological), coated on plates (cynomolgus, UniProt B0LAJ3 25-170). As to the kind of experiment: ELISA, plates coated with cynomolgus PD-1 at 1 µg/ml. As for the experimental part:
as §1

The target in assay [13] is T3, human PD-1 on transfected cells. As to the kind of experiment: flow cytometry on CHO-S cells expressing human PD-1, quantitative beads. The method, then: as §2
For assay [14], the target named is T7, mouse PD-1 antigen protein of the affinity-maturation screen (mouse, UniProt Q02242 25-167, limits assumed, biotinylated).
T7 sequence (looked up): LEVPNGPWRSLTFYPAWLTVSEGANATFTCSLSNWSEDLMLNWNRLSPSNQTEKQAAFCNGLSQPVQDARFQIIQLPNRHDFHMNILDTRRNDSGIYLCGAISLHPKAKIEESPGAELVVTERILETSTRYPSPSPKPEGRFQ
As to the kind of experiment: capture ELISA, second-round affinity-maturation screen (scFv format likely); unit not given.

Assay [15] deals with cynomolgus PD-1 antigen protein of the affinity-maturation screen (cynomolgus). Described as above.
In assay [16] the target is human PD-1 antigen protein of the affinity-maturation screen (human, UniProt Q15116 25-167, limits assumed, biotinylated). The description is as above.
A further assay has as its target T8, mPD-1.His (mouse, UniProt Q02242 25-167, limits assumed).
T8 construct: Soluble analyte, probably the extracellular domain; also called mouse PD-1 (SPR analyte)
T8 sequence (looked up): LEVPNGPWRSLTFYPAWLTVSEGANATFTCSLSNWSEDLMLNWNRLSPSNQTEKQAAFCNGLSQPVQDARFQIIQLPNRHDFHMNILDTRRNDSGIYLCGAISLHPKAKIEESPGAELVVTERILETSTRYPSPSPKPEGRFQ
As to the kind of experiment: SPR (ProteOn XPR36), antibody captured on Protein A, PD-1.His as analyte, 1:1 fit. The source says: (§5) Antibodies were characterized for affinity and binding kinetics to PD-1 by SPR assay using ProteOn XPR36 (Bio-Rad). Protein A protein (Sigma) was immobilized to a GLM sensor chip (Bio-Rad) through amine coupling. Purified antibodies were flowed over the sensor chip and captured by the Protein A. The chip was rotated […] and washed with running buffer (1×PBS/0.01% Tween20, Bio-Rad) until the baseline was stable. Seven concentrations of human PD-1 and running buffer were flowed through the sensor chip at a flow rate of 30 μL/min for an association phase of 180 s, followed by 300s dissociation. After regeneration, seven concentration of mouse PD-1 and running buffer were flowed through the sensor chip at a flow rate of 30 μL/min for an association phase of 180 s, followed by 300 s dissociation. The chip was regenerated with pH 1.5 H₃PO₄ after each run. The association and dissociation curve was fit by 1:1 Langmuir binding model using ProteOn software.

The target in another assay is T9, hPD-1.His (human, UniProt Q15116 25-170).
T9 construct: the SPR text says only human PD-1; also called human PD-1 (SPR analyte)
The assay is described as above.
Excerpt: as §5

The values below come from US20230014722A1 (CSTONE PHARMACEUTICALS, published 2023).

T3 sequence (Q15116 25-288 limits assumed): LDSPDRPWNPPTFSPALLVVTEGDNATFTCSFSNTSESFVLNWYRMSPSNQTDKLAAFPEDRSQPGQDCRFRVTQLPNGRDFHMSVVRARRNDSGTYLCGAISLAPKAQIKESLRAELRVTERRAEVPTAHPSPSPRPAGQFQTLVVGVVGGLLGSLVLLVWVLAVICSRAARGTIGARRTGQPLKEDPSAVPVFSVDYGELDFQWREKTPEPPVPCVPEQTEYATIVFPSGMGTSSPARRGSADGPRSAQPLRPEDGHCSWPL
cynomolgus PD-1 (Sino Biological), coated on plates, sequence (B0LAJ3 entry or part of it limits assumed): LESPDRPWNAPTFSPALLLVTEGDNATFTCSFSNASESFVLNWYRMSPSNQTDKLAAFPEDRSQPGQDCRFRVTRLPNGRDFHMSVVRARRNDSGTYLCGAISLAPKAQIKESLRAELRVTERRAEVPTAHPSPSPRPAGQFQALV
T1 sequence (Q15116 25-167 limits assumed): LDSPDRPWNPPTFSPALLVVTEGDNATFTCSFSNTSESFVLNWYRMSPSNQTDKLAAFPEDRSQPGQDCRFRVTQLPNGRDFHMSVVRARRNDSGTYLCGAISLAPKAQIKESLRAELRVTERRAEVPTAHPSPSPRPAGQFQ
human PD-1 antigen protein of the affinity-maturation screen, sequence (Q15116 25-167 limits assumed): as above
T5 sequence (P16410 36-223): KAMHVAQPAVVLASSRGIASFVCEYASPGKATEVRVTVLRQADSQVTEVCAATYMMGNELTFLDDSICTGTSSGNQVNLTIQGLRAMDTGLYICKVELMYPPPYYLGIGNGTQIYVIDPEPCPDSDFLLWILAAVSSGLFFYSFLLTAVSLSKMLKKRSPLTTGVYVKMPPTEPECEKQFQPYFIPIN
T9 sequence (Q15116 25-170): as the sequence (B0LAJ3 entry or part of it limits assumed) above, with E2D, A10P, L19V, A35T, R75Q, A144T counted along it

B1: 1H6 (antibody, human IgG4, V domains shown)
VH: QVQLVQSGAEVKKPGSSVKVSCKASGFTFTTYYISWVRQAPGQGLEYLGYINMGSGGTNYNEKFKGRVTITADKSTSTAYMELSSLRSEDTAVYYCAILGYFDYWGQGTMVTVSS
VL: DVVMTQSPLSLPVTLGQPASISCRSSQSLLDSDGGTYLYWFQQRPGQSPRRLIYLVSTLGSGVPDRFSGSGSGTDFTLKISRVEAEDVGVYYCMQLTHWPYTFGQGTKLEIK
With B1, the EC50 was 0.2 nM in assay [1]; 2.64 nM in [3]; 0.34 nM in assay [4]; 15.1 nM in assay [6]; 0.28 nM in assay [12]. For the same molecule, the Kd in [2] was 53.9 nM; in [13], 0.215 nM; with mPD-1.His, 9.37 nM; with hPD-1.His, 14.3 nM. Further, the binding result in assay [5] and in [9] was “no binding” each time. Also, the 50% inhibitory concentration (IC50) in assay [7] was 17.6 nM; in assay [8], 8.77 nM; in assay [10] it was 2.22 nM; in assay [11], 20.4 nM. In addition, the Bmax stood at 0.221 in [14], 0.317 in [15] and 3.35 in assay [16]. Moreover, the koff is 0.003 s⁻¹ in the assay with mPD-1.His and 0.00918 s⁻¹ with hPD-1.His. The kon with mPD-1.His amounted to 320000 M⁻¹ s⁻¹; with hPD-1.His, 644000 M⁻¹ s⁻¹.

B2: 2C2 (antibody, human IgG4, V domains shown)
VH: QVQLVQSGAEVKKPGSSVKVSCKASGFTFTTYYISWVRQAPGQGLEYLGYINMGSGGTNYNEKFKGRVTITADKSTSTAYMELSSLRSEDTAVYYCAIIGYFDYWGQGTMVTVSS
VL: DVVMTQSPLSLPVTLGQPASISCRSSQSLLDSDGATYLYWFQQRPGQSPRRLIYLVSTLGSGVPDRFSGSGSGTDFTLKISRVEAEDVGVYYCMQLTHWPYTFGQGTKLEIK
B2: the EC50 was 0.12 nM in assay [1]; 2.36 nM in assay [3]; 0.41 nM in assay [4]; 11.8 nM in assay [6]; 0.12 nM in [12]. For the same molecule, the Kd was found to be 17.4 nM in assay [2], 0.264 nM in assay [13], 6.92 nM in the assay with mPD-1.His and 5.64 nM with hPD-1.His. Moreover, the binding result in [5] and in [9] was “no binding” in each case. Moreover, the IC50 turned out to be 11.1 nM in [7], 6.55 nM in assay [8], 2.2 nM in assay [10] and 16.7 nM in assay [11]. Also, the results for the Bmax in assay [14], in assay [15] and in [16] were 0.416, 1.67 and 3.17, respectively. For the same molecule, the koff with mPD-1.His turned out to be 0.00153 s⁻¹; with hPD-1.His, 0.00414 s⁻¹. Moreover, the kon in the assay with mPD-1.His amounted to 221000 M⁻¹ s⁻¹; with hPD-1.His it was 733000 M⁻¹ s⁻¹.

B3: 2G4 (antibody, human IgG4, V domains shown)
VH: QVQLVQSGAEVKKPGSSVKVSCKASGFTFTTYYISWVRQAPGQGLEYLGYINMGSGGTNYNEKFKGRVTITADKSTSTAYMELSSLRSEDTAVYYCAIIGYFDYWGQGTMVTVSS
VL: DVVMTQSPLSLPVTLGQPASISCRSSQSLLDSDGSTYLYWFQQRPGQSPRRLIYLVSTLGSGVPDRFSGSGSGTDFTLKISRVEAEDVGVYYCMQLTHWPYTFGQGTKLEIK
For the molecule B3, the EC50 turned out to be 0.21 nM in [1]; 2.78 nM in assay [3]; 0.2 nM in assay [4]; 14.8 nM in [6]; 0.36 nM in assay [12]. Moreover, the dissociation constant Kd in assay [2] was determined as 35.1 nM; in [13], 0.38 nM; with mPD-1.His it was 3.89 nM; with hPD-1.His, 7.09 nM. In addition, the binding result in assay [5] and in [9] was “no binding” throughout. Besides, the IC50 in assay [7] came to 17.2 nM; in assay [8], 8.93 nM; in assay [10] it was 2.23 nM; in assay [11], 18.7 nM. The results for the Bmax in assay [14], in [15] and in assay [16] were 0.479, 1.72 and 3.37, respectively. Moreover, the koff with mPD-1.His worked out at 0.0013 s⁻¹; in the assay with hPD-1.His it was 0.0047 s⁻¹. The figures for the kon with mPD-1.His and with hPD-1.His were 334000 M⁻¹ s⁻¹ and 663000 M⁻¹ s⁻¹, respectively.
